One assay addresses GST-Rabin8-F201A (human). As to the kind of experiment: pull-down.
The next assay concerns the target GST-Rabin8-L196A (human). The assay is described as follows: pull-down.

For the substance “Rab8a (in vitro translated Rab8A-T22N or Rab8A-Q67L) (from UniProt P61006 1-207) (natural protein)”, the percent decrease of association against wild-type GST-Rabin8 with GST-Rabin8-F201A (human) was 52%; with GST-Rabin8-L196A (human), 39%.

The values are drawn from article PMC2975675.
